Assay results published in patent US20220064312A1 (SHIONOGI, published 2022).
Read-outs that look alike come from different tables or passages of the source. Blank lines part the entries; values can stand above or below the binder they belong to.

Legend:
[1] = target: T1, N-ter hCCR4-hCCR8 (human); experiment: flow cytometry, transfected Expi293 cells
T1 construct: chimera on Expi293 cells; remaining hCCR8 ranges derived from the stated swapped ranges and the 355-residue length; also called N-terminal region human CCR4-substituted human CCR8
T1 chain: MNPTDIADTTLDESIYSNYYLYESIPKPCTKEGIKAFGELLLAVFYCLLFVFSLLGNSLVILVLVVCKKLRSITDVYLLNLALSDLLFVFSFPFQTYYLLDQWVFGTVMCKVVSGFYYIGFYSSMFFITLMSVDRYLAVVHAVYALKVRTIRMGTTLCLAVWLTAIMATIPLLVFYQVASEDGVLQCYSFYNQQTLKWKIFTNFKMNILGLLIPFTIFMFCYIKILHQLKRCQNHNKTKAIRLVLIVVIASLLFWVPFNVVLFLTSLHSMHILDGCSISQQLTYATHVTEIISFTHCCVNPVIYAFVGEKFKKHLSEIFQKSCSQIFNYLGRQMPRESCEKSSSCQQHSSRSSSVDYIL

[2] = target: T2, mouse CCR8 (mouse, UniProt P56484 1-353); experiment: flow cytometry, transfected Expi293 cells
T2 construct: also called mCCR8
T2 sequence: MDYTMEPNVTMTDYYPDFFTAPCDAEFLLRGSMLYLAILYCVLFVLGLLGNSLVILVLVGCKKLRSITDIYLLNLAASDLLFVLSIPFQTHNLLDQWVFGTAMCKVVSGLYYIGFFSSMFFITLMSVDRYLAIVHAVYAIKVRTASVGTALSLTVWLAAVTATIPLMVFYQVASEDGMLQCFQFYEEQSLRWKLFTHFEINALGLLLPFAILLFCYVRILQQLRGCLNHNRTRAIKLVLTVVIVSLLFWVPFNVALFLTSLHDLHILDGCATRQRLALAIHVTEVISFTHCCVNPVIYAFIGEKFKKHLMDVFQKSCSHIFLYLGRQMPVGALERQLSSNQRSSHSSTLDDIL

[3] = target: T3, loop1 hCCR4-hCCR8 (human, UniProt P51685 1-355); experiment: flow cytometry, transfected Expi293 cells
T3 construct: chimera on Expi293 cells; hCCR8 ranges derived; also called loop 1-human CCR4-substituted human CCR8

[4] = target: hCCR8 (Y17A) (human, UniProt P51685 1-355); experiment: flow cytometry, transfected Expi293 cells
[5] = target: T4, human CCR4 (human, UniProt P51679 1-360); experiment: flow cytometry, transfected Expi293 cells
T4 construct: also called hCCR4
T4 sequence: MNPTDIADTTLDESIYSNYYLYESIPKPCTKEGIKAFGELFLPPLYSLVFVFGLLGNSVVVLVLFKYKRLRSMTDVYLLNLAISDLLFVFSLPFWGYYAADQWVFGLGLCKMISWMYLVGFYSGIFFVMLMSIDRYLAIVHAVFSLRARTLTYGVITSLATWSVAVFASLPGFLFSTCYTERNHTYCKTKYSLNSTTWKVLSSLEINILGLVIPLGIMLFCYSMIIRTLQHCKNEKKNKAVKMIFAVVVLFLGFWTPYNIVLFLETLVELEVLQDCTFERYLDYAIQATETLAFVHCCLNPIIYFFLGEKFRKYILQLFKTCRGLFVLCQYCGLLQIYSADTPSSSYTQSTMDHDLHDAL

[6] = target: T5, human CCR8 (human, UniProt P51685 1-355); experiment: cell-based or functional assay
[7] = target: T6, loop2 hCCR4-hCCR8 (human, UniProt P51685 1-355); experiment: flow cytometry, transfected Expi293 cells; Δ = significantly reduced vs hCCR8
T6 construct: chimera on Expi293 cells; hCCR8 ranges derived; also called loop2-human CCR4-substituted human CCR8

[8] = target: T5, human CCR8; experiment: cell-based or functional assay; remark: listed apart in the source
[9] = target: T5, human CCR8; experiment: cell-based or functional assay; remark: listed apart in the source
[10] = target: T5, human CCR8; experiment: cell-based or functional assay; remark: listed apart in the source
[11] = target: hCCR8 (N188A) (human, UniProt P51685 1-355); experiment: flow cytometry, transfected Expi293 cells
Procedure: (§1) In addition to the chimeras of human CCR4 and the point mutants at the N-terminal region of human CCR8 produced in Example 3, binding evaluation was also performed for point mutants at loop1 and loop2 regions of human CCR8. […] After reacting at room temperature for 3 hours, it was reacted with Alexa488-labeled Anti-human IgG antibody (Thermo Fisher Scientific) and flow cytometry analysis was performed.
(§2) In comparison to human CCR8, a mutant having binding activity of 70% or less was indicated as Δ and a mutant having binding activity of 20% or less was indicated as x.

[12] = target: hCCR8 (L181A) (human, UniProt P51685 1-355); experiment: flow cytometry, transfected Expi293 cells
Procedure: as §1, §2

[13] = target: hCCR8 (S22A) (human, UniProt P51685 1-355); experiment: flow cytometry, transfected Expi293 cells
Procedure: as §1, §2

[14] = target: T3, loop1 hCCR4-hCCR8; experiment: flow cytometry, transfected Expi293 cells; remark: listed apart in the source
Procedure: as §1, §2

[15] = target: hCCR8 (D97A) (human, UniProt P51685 1-355); experiment: flow cytometry, transfected Expi293 cells
Procedure: as §1, §2

[16] = target: hCCR8 (V180A) (human, UniProt P51685 1-355); experiment: flow cytometry, transfected Expi293 cells
Procedure: as §1, §2

[17] = target: T6, loop2 hCCR4-hCCR8; experiment: flow cytometry, transfected Expi293 cells
Procedure: as §1, §2

[18] = target: T7, hCCR8 (T32A) (human, UniProt P51685 1-355); experiment: flow cytometry, transfected Expi293 cells
T7 construct: also called hCCR8 (132A)
Procedure: as §1, §2

[19] = target: T8, hCCR8 (I20A) (human, UniProt P51685 1-355); experiment: flow cytometry, transfected Expi293 cells
T8 construct: also called hCCR8 (120A)
Procedure: as §1, §2

[20] = target: hCCR8 (K35A) (human, UniProt P51685 1-355); experiment: flow cytometry, transfected Expi293 cells
Procedure: as §1, §2

[21] = target: T9, hCCR8 (L5A) (human, UniProt P51685 1-355); experiment: flow cytometry, transfected Expi293 cells
T9 construct: also called hCCR8 (LSA)
Procedure: as §1, §2

[22] = target: T5, human CCR8; experiment: cell-based or functional assay; remark: listed apart in the source

T5 sequence (P51685 whole entry): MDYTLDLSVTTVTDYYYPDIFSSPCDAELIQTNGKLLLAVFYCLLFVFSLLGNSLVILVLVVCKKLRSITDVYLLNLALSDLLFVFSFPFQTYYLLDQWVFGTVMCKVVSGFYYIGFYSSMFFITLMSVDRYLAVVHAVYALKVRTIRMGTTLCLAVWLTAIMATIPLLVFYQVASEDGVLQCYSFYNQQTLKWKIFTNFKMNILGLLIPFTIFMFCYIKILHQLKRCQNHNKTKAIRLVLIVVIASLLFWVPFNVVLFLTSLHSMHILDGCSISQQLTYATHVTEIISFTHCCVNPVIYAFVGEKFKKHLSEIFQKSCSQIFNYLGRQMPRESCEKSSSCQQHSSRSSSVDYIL
hCCR8 (Y17A), sequence (P51685 whole entry Y17A): as the sequence (P51685 whole entry) above, with Y17A counted along it

binding result [1]: no binding
binding result [2]: no binding
binding result [3]: no binding
binding result [4]: no binding
binding result [5]: no binding
Neutralizing Activity IC50 (nM), Ca2+ influx by 100 nM hCCL1 [6]: 0.4 nM
binding result [7]: binds
IC50 (nM), Ca2+ influx by 200 nM hCCL1 [8]: 1.19 nM
B1: 2C7 (antibody, V domains shown)
VH: QVQLKQSGPSLVQPSQSLSITCTVSGFSLTAYGVHWIRQSPGKGQEWLGVIWRGGSTDYNAAFMSRLTITKDNSKSQVFFKMNSLQADDTAIYYCAKKGGSYAMDYWGQGTSVTVSS
VL: DVVLTQTPLSLPVSLGGQASISCRSSQSLVHSNGNTYLHWYLQKPGQSPKLLIYKVSNRFSGVPDRFSGSGSGTDFTLKISRVEAEDLGVYFCSQSTQVPLTFGAGTKLELKR
notes: mouse hybridoma antibody

IC50 ratio (WT IC50/mutant IC50) [9]: 1 ratio
IC50 (nM), Ca2+ influx by 200 nM hCCL1 [10]: 0.15 nM
binding activity in comparison to human CCR8 [11]: ≤ 70%
binding activity in comparison to human CCR8 [12]: ≤ 70%
binding activity in comparison to human CCR8 [13]: ≤ 70%
binding activity in comparison to human CCR8 [14]: ≤ 70%
binding activity in comparison to human CCR8 [15]: ≤ 70%
binding activity in comparison to human CCR8 [16]: ≤ 70%
binding activity in comparison to human CCR8 [17]: ≤ 70%
binding activity in comparison to human CCR8 [18]: ≤ 70%
binding activity in comparison to human CCR8 [19]: ≤ 70%
binding activity in comparison to human CCR8 [20]: ≤ 70%
binding activity in comparison to human CCR8 [21]: ≤ 70%
B2: h10A11 (IGKV4-1/IGHV3-15 T94R) (antibody, V domains shown)
VH: EVQLVESGGALVKPGGSLRLSCAASGFTFSTYALYWVRQAPGKGLEWVGRIRSKSNNYATYYADSVKDRFTISRDDSKNTLYLQMNSLKTEDTAVYYCTRARFYYSDYGYAMDYWGQGTLVTVSS
VL: DIVMTQSPDSLAVSLGERATINCRSSKSLLHSNGNTYLYWYQQKPGQPPKLLIYRMSNLASGVPDRFSGSGSGTDFTLTISSLQAEDVAVYYCMQHLEYPLTFGQGTKLEIKR
notes: humanized; detected with anti-human IgG; also called humanized 10A11 antibody (light chain variable region: IGKV4-1/heavy chain variable region: IGHV3-15 T94R)

IC50 ratio (WT IC50/mutant IC50) [22]: 1 ratio
IC50 (nM), Ca2+ influx by 200 nM hCCL1 [10]: 0.17 nM
B3: h10A11 (IGKV4-1/IGHV3-73) (antibody, V domains shown)
VH: EVQLVESGGGLVQPGGSLKLSCAASGFAFNTYALYWVRQASGKGLEWVGRIRSKSNNYATYYADSVKDRFTISRDDSKNTAYLQMNSLKTEDTAVYYCTRARFYYSDYGYAMDYWGQGTLVTVSS
VL: DIVMTQSPDSLAVSLGERATINCRSSKSLLHSNGNTYLYWYQQKPGQPPKLLIYRMSNLASGVPDRFSGSGSGTDFTLTISSLQAEDVAVYYCMQHLEYPLTFGQGTKLEIKR
